Assay [1] has as its target MHC class II molecules on MHC class II-expressing Raji cells (human). As to the kind of experiment: cell-based or functional assay.
Assay [2] has the same target. As to the kind of experiment: BLI; immobilised sample, Raji cells in solution; FIG. 24. For orientation: Biolayer interferometry detects binding as a change in optical thickness at a sensor tip.
The target is the same in assay [3]. As to the kind of experiment: BLI; immobilised sample, Raji cells in solution; FIG. 23.

In assay [1], “IMP321, Acid pH 3.1 at RT (1 D = 1 day) (Fc fusion)” showed a Bioactivity (CCL4 release) of 15%. Still for that read-out and setting: with “IMP321, Acid pH 3.6 at RT (1 D = 1 day) (Fc fusion)” the figure was 29%. In assay [1], “IMP321, Light, 10 D = 10 days (Fc fusion)” displayed a Bioactivity (CCL4 release) of 73%. In assay [2], this substance yielded a Bioactivity (binding) of 75%. Substance “IMP321 Oxidation, 0.1% H2O2 at 37° C. (1 D = 1 day) (Fc fusion)” displayed a Bioactivity (CCL4 release) in assay [1] of 21%. Still for that read-out and setting: with “IMP321, Acid pH 3.0 at RT (1 D = 1 day) (Fc fusion)” the figure was 7%.

Substance IMP321, Light, 5 D = 5 days (Fc fusion) yielded a Bioactivity (CCL4 release) in assay [1] of 87%. Also, the Bioactivity (binding) in assay [3] was found to be 74%.

With “IMP321 Oxidation, 1% H2O2 at 37° C. (1 D = 1 day) (Fc fusion)”, the Bioactivity (CCL4 release) in assay [1] is 10%.

In assay [1], “IMP321, Alkali pH 9.2 at 37° C. (1 D = 1 day) (Fc fusion)” came in with a Bioactivity (CCL4 release) of 17%.

The record behind these values is patent US20190361034A1.
